Measured values reported in US20140147444A1 (published 2014).
Where “and” joins values, the source holds several entries; their conditions need not be identical. Equal values may be shown once.

How the values were obtained:
human OPGbp [143-317] [1] = molecular target: T1, human OPGbp [143-317] (human, UniProt O14788 143-317); test: cell-based or functional assay
T1 sequence (looked up): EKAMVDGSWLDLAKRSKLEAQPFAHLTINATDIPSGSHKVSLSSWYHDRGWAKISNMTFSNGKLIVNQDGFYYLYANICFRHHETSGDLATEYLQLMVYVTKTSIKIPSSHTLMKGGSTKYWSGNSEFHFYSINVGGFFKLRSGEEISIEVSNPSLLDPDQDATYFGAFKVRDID

human OPGbp [143-317] [2] = molecular target: T1, human OPGbp [143-317]; test: SPR (BIAcore), OPGbp on CM5 chip (47 RU)
Protocol: (§1) The binding constant (Kd), on rate constant (ka) and off rate constant (kd) for Fabs “AT” and “Y” and “AT” antibody were determined by surface plasmon resonance techniques (BIAcore, Pharmacia, Piscataway, N.J.) and the results are shown in Table II. Fabs were prepared as described in Example 4 and “AT” antibody prepared as described in Example 7. OPGbp was immobilized on a CM5-chip by standard amine coupling. The Kd and rate constants were determined by BIAEVALUATION 3.0 software (Pharmacia).

human OPGbp [143-317] [3] = molecular target: T1, human OPGbp [143-317]; test: SPR (BIAcore), OPGbp on CM5 chip (80 RU)
Protocol: as §1

human OPGbp [143-317] [4] = molecular target: T1, human OPGbp [143-317]; test: SPR (BIAcore), OPGbp on CM5 chip (147 RU)
Protocol: as §1

human OPGbp [143-317] [5] = molecular target: T1, human OPGbp [143-317]; test: SPR (BIAcore), immobilized OPGbp [143-317]
murine OPGbp[158-316] = molecular target: T2, murine OPGbp[158-316] (murine, UniProt O35235 158-316); test: EIA on plates coated with murine OPGbp[158-316]
T2 sequence: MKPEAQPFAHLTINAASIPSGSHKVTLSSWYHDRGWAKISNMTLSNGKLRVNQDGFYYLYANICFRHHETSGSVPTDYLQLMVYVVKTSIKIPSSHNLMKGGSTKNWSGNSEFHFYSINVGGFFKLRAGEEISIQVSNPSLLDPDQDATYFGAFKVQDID
Protocol: After overnight incubation, the protein solutions were removed from the plate and 200 μl of 5% Chicken Serum (Gibco/BRL Cat#16110-082) in PBST (PBS plus 0.05% Tween 20) was added to each well of the plate and plates were incubated at room temperature (RT) for 90 min with agitation. After incubation and blocking, plates were washed 4 times with 1×K-P wash solution in dH₂O (Cat#50-63-00, Kirkegaard & Perry Laboratories) and dried. […] Plates were incubated for three hours at room temperature with agitation, washed four times with 1× K-P wash solution and dried. Goat anti-human IgG (Fc) (Jackson ImmunoResearch, Cat#109-036-098) was diluted 1:5000 in 5% Chicken Serum in PBST and 100 μl was added to each well. […] 100 μl of undiluted ABTS substrate (Kirkegaard & Perry; Cat#50-66-00) was added to each well and the dish was incubated at room temperature until sufficient blue-green color developed. Color development was stopped by addition of 100 μl 1% SDS. Quantitation of color development was performed using a microtiter plate reader with detection at 405 nm.

RAW cell assay, IC50, preparation “AT”405 (human OPGbp [143-317] [1]): 3 ug/ml and 20.1 nM
RAW cell assay, IC50, preparation “AT”406 (human OPGbp [143-317] [1]): 60.3 nM and 9 ug/ml
RAW cell assay, IC50, preparation “AT”407 (human OPGbp [143-317] [1]): 21.4 nM and 3.2 ug/ml
bone marrow assay, inhibition of TRAP formation, IC50, preparation “AT”406 (human OPGbp [143-317] [1]): 2.35 µg/ml and 14.4 nM
murine bone marrow assay, IC50, preparation “AT”405 (human OPGbp [143-317] [1]): 2.15 ug/ml and 14.4 nM
murine bone marrow assay, IC50, preparation “AT”407 (human OPGbp [143-317] [1]): 1.85 ug/ml and 12.5 nM
Kd (human OPGbp [143-317] [2]): 0.43 nM
koff (human OPGbp [143-317] [2]): 0.0031 s⁻¹
kon (human OPGbp [143-317] [2]): 7.3e+06 M⁻¹ s⁻¹
Kd (human OPGbp [143-317] [3]): 0.33 nM
koff (human OPGbp [143-317] [3]): 0.0027 s⁻¹
kon (human OPGbp [143-317] [3]): 8.1e+06 M⁻¹ s⁻¹
Kd (human OPGbp [143-317] [4]): 0.42 nM
koff (human OPGbp [143-317] [4]): 0.0024 s⁻¹
kon (human OPGbp [143-317] [4]): 5.7e+06 M⁻¹ s⁻¹
Kd (human OPGbp [143-317] [5]): 1.18 nM
koff (human OPGbp [143-317] [5]): 0.002 s⁻¹
kon (human OPGbp [143-317] [5]): 1.7e+06 M⁻¹ s⁻¹
B1: “AT” antibody (full-length human IgG1) (antibody, V domains shown)
VH: QVQLVQSGAEVRKPGASVKVSCKASGYDFSNYAIHWVRQAPGQRLEWMGWINAGNGNTKFSQKFQGRITVTRDTAASTAYMELRSLRSEDTAVYYCARDSSNMVRGIIIAYYFDYWGQGTLVTVSS
VL: EIVMTQSPSSLSASVGDRVTITCRASQSISRYLNWYQLKPGKAPRLLIYGASSLQSGVPSRFSGSGSGAEFTLTISSLQPEDIATYYCQHTRAFGQGTKVEIKR
notes: Expressed in CHO cells; also called “AT” Ab; not shown: human IgG1 CH1, hinge, CH2 and CH3
binding result (murine OPGbp[158-316]): no binding (tested: 2 ug/ml down to 1.953 ng/ml)
